Measurements taken from the supplement of paper PMC9112550, “Optimization of the antimicrobial peptide Bac7 by deep mutational scanning” (BMC Biology, 2022).

What follows are sequences tested on Escherichia coli TOP10 (assay: shrunken log2 fold change of peptide-encoding DNA abundance (4.5 h post-induction vs induction); higher = less antimicrobial activity (less host growth inhibition)). Details: time post-induction: 4.5 h; library: site-saturation at positions 5, 18, 19, 20.
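Further: peptides expressed intracellularly from a pBAD plasmid library in pooled LB shake-flask culture, induced with 0.3% L-arabinose, DNA abundance read by NGS, three biological replicates, DESeq2 with apeglm shrinkage.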

Row | Sequence | shrunken log2 fold change
1 | RRIRCRPPRLPRPRPRPRGNPRP | 0.0747
2 | RRIRCRPPRLPRPRPRPRHKPRP | -0.265
3 | RRIRCRPPRLPRPRPRPRKMPRP | -0.00382
4 | RRIRCRPPRLPRPRPRPRKWPRP | -0.0179
5 | RRIRCRPPRLPRPRPRPRKYPRP | -0.458
6 | RRIRCRPPRLPRPRPRPRLEPRP | 0.299
7 | RRIRCRPPRLPRPRPRPRNTPRP | 0.855
8 | RRIRCRPPRLPRPRPRPRNVPRP | -0.156
9 | RRIRCRPPRLPRPRPRPRPRPRP | 0.83
10 | RRIRCRPPRLPRPRPRPRPVPRP | 0.766
11 | RRIRCRPPRLPRPRPRPRRLPRP | 0.133
12 | RRIRCRPPRLPRPRPRPRSPPRP | 0.636
13 | RRIRCRPPRLPRPRPRPRSQPRP | 0.0629
14 | RRIRCRPPRLPRPRPRPRTFPRP | -0.24
15 | RRIRCRPPRLPRPRPRPRTIPRP | -0.154
16 | RRIRCRPPRLPRPRPRPRVNPRP | 0.0551
17 | RRIRCRPPRLPRPRPRPRWLPRP | 0.313
18 | RRIRCRPPRLPRPRPRPRWWPRP | 0.718
19 | RRIRCRPPRLPRPRPRPSAAPRP | 0.386
20 | RRIRCRPPRLPRPRPRPSAFPRP | 0.426
21 | RRIRCRPPRLPRPRPRPSDFPRP | -0.203
22 | RRIRCRPPRLPRPRPRPSDLPRP | -0.0943
23 | RRIRCRPPRLPRPRPRPSDPPRP | -0.317
24 | RRIRCRPPRLPRPRPRPSEIPRP | -0.321
25 | RRIRCRPPRLPRPRPRPSEWPRP | -0.214

Row | Sequence | shrunken log2 fold change
26 | RRIRCRPPRLPRPRPRPSFCPRP | -0.559
27 | RRIRCRPPRLPRPRPRPSGAPRP | 0.176
28 | RRIRCRPPRLPRPRPRPSGCPRP | -0.221
29 | RRIRCRPPRLPRPRPRPSGIPRP | -0.154
30 | RRIRCRPPRLPRPRPRPSKAPRP | 0.0693
31 | RRIRCRPPRLPRPRPRPSKFPRP | -0.17
32 | RRIRCRPPRLPRPRPRPSKLPRP | -0.674
33 | RRIRCRPPRLPRPRPRPSKSPRP | -0.0548
34 | RRIRCRPPRLPRPRPRPSLHPRP | -0.289
35 | RRIRCRPPRLPRPRPRPSLMPRP | -0.287
36 | RRIRCRPPRLPRPRPRPSLVPRP | -0.399
37 | RRIRCRPPRLPRPRPRPSMSPRP | -0.273
38 | RRIRCRPPRLPRPRPRPSNAPRP | -0.572
39 | RRIRCRPPRLPRPRPRPSNWPRP | 0.0114
40 | RRIRCRPPRLPRPRPRPSPKPRP | -0.326
41 | RRIRCRPPRLPRPRPRPSQKPRP | -0.169
42 | RRIRCRPPRLPRPRPRPSQQPRP | -0.0757
43 | RRIRCRPPRLPRPRPRPSRSPRP | -0.136
44 | RRIRCRPPRLPRPRPRPSSPPRP | -0.461
45 | RRIRCRPPRLPRPRPRPSTKPRP | -0.277
46 | RRIRCRPPRLPRPRPRPSTYPRP | -0.768
47 | RRIRCRPPRLPRPRPRPSVQPRP | -0.579
48 | RRIRCRPPRLPRPRPRPSVYPRP | -0.697
49 | RRIRCRPPRLPRPRPRPSWIPRP | -0.732
50 | RRIRCRPPRLPRPRPRPTCEPRP | 0.142

Row | Sequence | shrunken log2 fold change
51 | RRIRCRPPRLPRPRPRPTDCPRP | 0.0318
52 | RRIRCRPPRLPRPRPRPTFAPRP | 0.359
53 | RRIRCRPPRLPRPRPRPTFCPRP | -0.0442
54 | RRIRCRPPRLPRPRPRPTFRPRP | 0.0981
55 | RRIRCRPPRLPRPRPRPTGGPRP | 0.561
56 | RRIRCRPPRLPRPRPRPTGSPRP | 0.0208
57 | RRIRCRPPRLPRPRPRPTHIPRP | -0.326
58 | RRIRCRPPRLPRPRPRPTHQPRP | 0.476
59 | RRIRCRPPRLPRPRPRPTIFPRP | -0.626
60 | RRIRCRPPRLPRPRPRPTIVPRP | -0.0931
61 | RRIRCRPPRLPRPRPRPTKNPRP | 0.142
62 | RRIRCRPPRLPRPRPRPTLKPRP | 0.017
63 | RRIRCRPPRLPRPRPRPTNCPRP | -0.282
64 | RRIRCRPPRLPRPRPRPTNRPRP | -0.356
65 | RRIRCRPPRLPRPRPRPTNVPRP | -0.154
66 | RRIRCRPPRLPRPRPRPTPNPRP | 0.786
67 | RRIRCRPPRLPRPRPRPTPVPRP | 0.714
68 | RRIRCRPPRLPRPRPRPTQKPRP | 0.0827
69 | RRIRCRPPRLPRPRPRPTQTPRP | 0.286
70 | RRIRCRPPRLPRPRPRPTRVPRP | 0.547
71 | RRIRCRPPRLPRPRPRPTRWPRP | 0.284
72 | RRIRCRPPRLPRPRPRPTSNPRP | -0.1
73 | RRIRCRPPRLPRPRPRPTTHPRP | -0.0573
74 | RRIRCRPPRLPRPRPRPTTTPRP | -0.0127
75 | RRIRCRPPRLPRPRPRPTVDPRP | 0.337

Row | Sequence | shrunken log2 fold change
76 | RRIRCRPPRLPRPRPRPTWDPRP | 0.151
77 | RRIRCRPPRLPRPRPRPTYKPRP | -0.267
78 | RRIRCRPPRLPRPRPRPTYPPRP | -0.274
79 | RRIRCRPPRLPRPRPRPTYYPRP | -0.758
80 | RRIRCRPPRLPRPRPRPVAWPRP | 0.163
81 | RRIRCRPPRLPRPRPRPVCWPRP | 0.401
82 | RRIRCRPPRLPRPRPRPVDYPRP | -0.258
83 | RRIRCRPPRLPRPRPRPVERPRP | 0.0133
84 | RRIRCRPPRLPRPRPRPVFFPRP | -0.0521
85 | RRIRCRPPRLPRPRPRPVFGPRP | -0.0365
86 | RRIRCRPPRLPRPRPRPVISPRP | -0.154
87 | RRIRCRPPRLPRPRPRPVKLPRP | -0.176
88 | RRIRCRPPRLPRPRPRPVKSPRP | 0.967
89 | RRIRCRPPRLPRPRPRPVKTPRP | -0.132
90 | RRIRCRPPRLPRPRPRPVMAPRP | -0.354
91 | RRIRCRPPRLPRPRPRPVMNPRP | -0.0483
92 | RRIRCRPPRLPRPRPRPVPAPRP | 0.457
93 | RRIRCRPPRLPRPRPRPVQFPRP | 0.13
94 | RRIRCRPPRLPRPRPRPVQQPRP | 0.148
95 | RRIRCRPPRLPRPRPRPVREPRP | 0.386
96 | RRIRCRPPRLPRPRPRPVSVPRP | -0.0739
97 | RRIRCRPPRLPRPRPRPVTAPRP | 0.108
98 | RRIRCRPPRLPRPRPRPVWKPRP | 0.159
99 | RRIRCRPPRLPRPRPRPVYFPRP | -0.711
100 | RRIRCRPPRLPRPRPRPWAMPRP | -0.226

Row | Sequence | shrunken log2 fold change
101 | RRIRCRPPRLPRPRPRPWCQPRP | -0.32
102 | RRIRCRPPRLPRPRPRPWCSPRP | -0.321
103 | RRIRCRPPRLPRPRPRPWDAPRP | -0.758
104 | RRIRCRPPRLPRPRPRPWDYPRP | 0.00188
105 | RRIRCRPPRLPRPRPRPWENPRP | 0.0328
106 | RRIRCRPPRLPRPRPRPWERPRP | -0.118
107 | RRIRCRPPRLPRPRPRPWEYPRP | 0.0155
108 | RRIRCRPPRLPRPRPRPWFYPRP | -0.758
109 | RRIRCRPPRLPRPRPRPWGTPRP | -0.0869
110 | RRIRCRPPRLPRPRPRPWHFPRP | -0.422
111 | RRIRCRPPRLPRPRPRPWHLPRP | -0.221
112 | RRIRCRPPRLPRPRPRPWHQPRP | -0.0304
113 | RRIRCRPPRLPRPRPRPWIAPRP | -0.256
114 | RRIRCRPPRLPRPRPRPWLVPRP | -0.16
115 | RRIRCRPPRLPRPRPRPWMDPRP | -0.169
116 | RRIRCRPPRLPRPRPRPWNIPRP | 0.0152
117 | RRIRCRPPRLPRPRPRPWNYPRP | -0.282
118 | RRIRCRPPRLPRPRPRPWPIPRP | -0.369
119 | RRIRCRPPRLPRPRPRPWQCPRP | -0.0231
120 | RRIRCRPPRLPRPRPRPWQNPRP | -0.124
121 | RRIRCRPPRLPRPRPRPWQSPRP | -0.127
122 | RRIRCRPPRLPRPRPRPWRLPRP | 0.0337
123 | RRIRCRPPRLPRPRPRPWRSPRP | -0.0803
124 | RRIRCRPPRLPRPRPRPWSCPRP | -0.739
125 | RRIRCRPPRLPRPRPRPWVVPRP | -0.168

Row | Sequence | shrunken log2 fold change
126 | RRIRCRPPRLPRPRPRPWWGPRP | 0.0769
127 | RRIRCRPPRLPRPRPRPWWTPRP | -0.383
128 | RRIRCRPPRLPRPRPRPWYGPRP | -0.49
129 | RRIRCRPPRLPRPRPRPWYSPRP | -0.361
130 | RRIRCRPPRLPRPRPRPYAAPRP | -0.269
131 | RRIRCRPPRLPRPRPRPYAFPRP | -0.425
132 | RRIRCRPPRLPRPRPRPYAQPRP | -0.227
133 | RRIRCRPPRLPRPRPRPYCKPRP | -0.894
134 | RRIRCRPPRLPRPRPRPYCMPRP | -1.09
135 | RRIRCRPPRLPRPRPRPYCSPRP | -0.502
136 | RRIRCRPPRLPRPRPRPYDTPRP | -0.308
137 | RRIRCRPPRLPRPRPRPYERPRP | -0.133
138 | RRIRCRPPRLPRPRPRPYESPRP | 0.0203
139 | RRIRCRPPRLPRPRPRPYETPRP | 0.023
140 | RRIRCRPPRLPRPRPRPYFCPRP | -0.514
141 | RRIRCRPPRLPRPRPRPYFFPRP | -0.614
142 | RRIRCRPPRLPRPRPRPYFSPRP | -0.135
143 | RRIRCRPPRLPRPRPRPYKDPRP | -0.492
144 | RRIRCRPPRLPRPRPRPYKLPRP | -0.898
145 | RRIRCRPPRLPRPRPRPYMNPRP | -0.99
146 | RRIRCRPPRLPRPRPRPYNDPRP | -0.456
147 | RRIRCRPPRLPRPRPRPYNHPRP | -0.416
148 | RRIRCRPPRLPRPRPRPYPAPRP | -0.53
149 | RRIRCRPPRLPRPRPRPYRDPRP | -0.16
150 | RRIRCRPPRLPRPRPRPYREPRP | -0.09
